{"source": "patent US20250092148A1", "about": "(Kyowa Kirin, published 2025)", "binders": {"B1": {"name": "116-413 (Fab, V domains shown)", "VH": "QVQLVQSGAEVKKPGASVKVSCKVSGYTLTDLSMHWVRQAPGKGLEWMGGFDPEDGETIYAQKFQGRVTMTEDTSTDTAYMELSSLRSEDTAVYYCATGLFYYQYGMDVWGQGTTVTVSS", "VL": "not shown", "notes": "phage library clone, E. coli culture supernatant"}, "B2": {"name": "116-433 (Fab, V domains shown)", "VH": "B1 VH with L32F, S33A, M34I, T58R, A97T, T115L", "VL": "not shown", "notes": "as for B1"}, "B3": {"name": "116-398 (Fab, V domains shown)", "VH": "B1 VH with Q1E, T30A, D31E, T58R, T76K, A97T, T115M", "VL": "not shown", "notes": "phage library clone, tested as E. coli culture supernatant (FLAG-His tag)"}, "B4": {"name": "116-464 (Fab, V domains shown)", "VH": "B1 VH with T58R, V93M", "VL": "not shown", "notes": "as for B1"}, "B5": {"name": "116-463 (Fab, V domains shown)", "VH": "B1 VH with L32F, S33A, M34I, T58R", "VL": "not shown", "notes": "as for B1"}, "B6": {"name": "116-465 (Fab, V domains shown)", "VH": "B1 VH with T28P, K43E, F51S, M70V, S85N", "VL": "not shown", "notes": "as for B1"}, "B7": {"name": "116-412 (Fab, V domains shown)", "VH": "B1 VH with Q1E, F51L, T115L", "VL": "not shown", "notes": "as for B1"}, "B8": {"name": "116-435 (Fab, V domains shown)", "VH": "B1 VH with Q1E, D31E, T58R", "VL": "not shown", "notes": "as for B1"}, "B9": {"name": "116-439 (Fab, V domains shown)", "VH": "B1 VH with V5Q, T58R, T115L", "VL": "not shown", "notes": "as for B1"}, "B10": {"name": "116-421 (Fab, V domains shown)", "VH": "B1 VH with V5Q, T58R, S75A, Y95H", "VL": "not shown", "notes": "as for B1"}, "B11": {"name": "116-466 (Fab, V domains shown)", "VH": "B1 VH with T58R, G66D, T115L", "VL": "not shown", "notes": "as for B1"}}, "note": "Residue numbers refer to the chain shown, from its start.", "data": [{"molecular_target": "T1, human CD116 soluble antigen (His-tag form) (human, UniProt P15509 23-320)", "T1 construct": "extracellular domain; expressed in Expi293F cells; also called hCD116-His", "T1 sequence (looked up)": "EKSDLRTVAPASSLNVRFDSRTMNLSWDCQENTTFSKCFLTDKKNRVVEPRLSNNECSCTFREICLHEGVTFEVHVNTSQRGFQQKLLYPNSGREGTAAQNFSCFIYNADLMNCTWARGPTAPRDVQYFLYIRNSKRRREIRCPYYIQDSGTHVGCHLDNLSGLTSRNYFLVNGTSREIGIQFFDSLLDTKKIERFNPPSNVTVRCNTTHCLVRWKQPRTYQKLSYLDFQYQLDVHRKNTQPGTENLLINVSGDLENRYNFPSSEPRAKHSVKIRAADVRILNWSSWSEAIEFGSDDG", "assay": "screening by ELISA on biotinylated antigen and by flow cytometry, E. coli supernatant", "values": [{"binder": "B1", "binding result": "binds"}, {"binder": "B2", "binding result": "binds"}, {"binder": "B3", "binding result": "binds"}, {"binder": "B4", "binding result": "binds"}, {"binder": "B5", "binding result": "binds"}, {"binder": "B6", "binding result": "binds"}, {"binder": "B7", "binding result": "binds"}, {"binder": "B8", "binding result": "binds"}, {"binder": "B9", "binding result": "binds"}, {"binder": "B10", "binding result": "binds"}, {"binder": "B11", "binding result": "binds"}]}]}
